A word on the IC50: it is the midpoint of a concentration-inhibition curve.

Assay [1] has as its target T1, human melanocortin-4 (MC-4) receptors (Homo sapiens, UniProt P32245).
T1 construct: expressed in transfected cells; membrane fraction used
The class given is binding. Particulars: HEK 293 cell membranes; about […] 125I-NDP-α-MSH; 180 minutes at 25 C; read-out: hMC4 IC50 (nM) 125I NDP-MSH.

Assay [2] is classed as binding, human. Particulars: Table II; HEK 293 cell membranes; 125I-AGRP 1.10 nM; read-out: hMC3 IC50 (nM) 125I-AGRP.
For assay [3], the target named is T2, human melanocortin-3 (MC-3) receptors (Homo sapiens, UniProt P41968).
T2 construct: expressed in transfected cells; membrane fraction used
As to the kind of experiment: Melanocortin receptor binding assay, 125I-NDP-alpha-MSH competition, MC-3. Particulars: HEK 293 cell membranes; about […] 125I-NDP-α-MSH; 180 minutes at 25 C; read-out: hMC3 IC50 (nM) 125I NDP-MSH.

In assay [4] the target is T2, human melanocortin-3 (MC-3) receptors. The assay is described as follows: Melanocortin receptor binding assay, 125I-AGRP competition, MC-3. The following applies: Table II; HEK 293 cell membranes; 125I-AGRP 1.10 nM; read-out: hMC3 IC50 (nM) 125I-AGRP.
Assay [5] addresses T3, human melanocortin-3 (MC-3) receptor (human, UniProt P41968). The assay is described as follows: displacement of 125I-AGRP, membranes of HEK 293 cells with hMC3 (value column 4). (In general: Loss of bound radioactivity is the signal in a displacement assay; it reports binding, not function.)
In assay [6] the target is T3, human melanocortin-3 (MC-3) receptor. As to the kind of experiment: displacement of 125I-NDP-alpha-MSH, membranes of HEK 293 cells with hMC3 (value column 3).
In assay [7] the target is T4, human melanocortin-4 (MC-4) receptor (human, UniProt P32245). The assay is described as follows: displacement of 125I-NDP-alpha-MSH, membranes of HEK 293 cells with hMC4 (value column 1).
The target of assay [8] is T4, human melanocortin-4 (MC-4) receptor. As to the kind of experiment: displacement of 125I-AGRP, membranes of HEK 293 cells with hMC4 (value column 2; its head prints hMC3).

Values joined by “and” are separate entries in the source; they are usually repeats but may differ in a detail not shown here. Equal values may be shown once. Bridge positions count the residues as written; N and C are the ends. Square brackets hold non-standard residues; d marks the D form. Ends that are not written are not given here. Nle = CCCC[C@H](N)C(=O)O; Abu = CC[C@H](N)C(=O)O

T1 sequence (P32245 whole entry): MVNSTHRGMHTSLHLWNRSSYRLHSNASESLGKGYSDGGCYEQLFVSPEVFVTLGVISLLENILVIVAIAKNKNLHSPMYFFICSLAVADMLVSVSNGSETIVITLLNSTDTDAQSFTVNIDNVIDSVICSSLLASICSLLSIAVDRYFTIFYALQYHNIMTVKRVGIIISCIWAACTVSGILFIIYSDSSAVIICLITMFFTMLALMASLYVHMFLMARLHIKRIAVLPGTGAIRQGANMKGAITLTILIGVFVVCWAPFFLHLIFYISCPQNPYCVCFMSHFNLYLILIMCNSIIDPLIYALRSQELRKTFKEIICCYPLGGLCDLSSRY
T2 sequence (P41968 whole entry): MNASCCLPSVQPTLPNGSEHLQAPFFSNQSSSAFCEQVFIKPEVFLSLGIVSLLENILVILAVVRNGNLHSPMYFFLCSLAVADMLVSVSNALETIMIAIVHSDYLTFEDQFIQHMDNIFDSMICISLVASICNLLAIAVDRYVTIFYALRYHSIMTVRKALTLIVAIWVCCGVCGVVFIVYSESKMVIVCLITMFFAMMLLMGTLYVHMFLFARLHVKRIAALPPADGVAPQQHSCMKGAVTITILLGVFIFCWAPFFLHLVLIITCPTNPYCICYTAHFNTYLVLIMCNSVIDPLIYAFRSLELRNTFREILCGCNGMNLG
T4 sequence (P32245 whole entry): as the sequence (P32245 whole entry) above

Consider “HESCLGQQVPC[Abu]DP[Abu]ATCY[Abu]RFFNAF[Abu]YCRKL (cysteine pairing not given here) [SEQ ID NO:5]”, for which the IC50 in assay [1] was above 1000 nM; in assay [2], 377 nM; in assay [3] it was above 1000 nM; in assay [4], above 1000 nM.

As for “AC[Abu]DP[Abu]AS[Abu]QCRFFRSACSCRVL (cysteine pairing not given here) [SEQ ID NO:16]”, the IC50 was above 1000 nM in assay [1], 280 nM in assay [2], above 1000 nM in assay [3] and above 1000 nM in assay [4].

Consider “HESCLGQQVP[Abu][Abu]DP[Abu]ATCYCRFFNAFCY[Abu]RKL (cysteine pairing not given here) [SEQ ID NO:3]”, for which the IC50 in assay [1] is 900 nM; in assay [2], 160 nM; in assay [3], above 1000 nM; in assay [4] it was above 1000 nM.

“C[Abu]DPCAS[Abu]Q[Abu]RFFRSA[Abu]SCRVLSLNC (cysteine pairing not given here) [SEQ ID NO:18]”: the IC50 in assay [1], in assay [2], in assay [3] and in assay [4] was above 1000 nM each time.

Consider “His-Glu-Ser-Abu-Leu-Gly-Gln-Gln-Val-Pro-Cys-Abu-Asp-Pro-Abu-Ala-Thr-Abu-Tyr-Cys-Arg-Phe-Phe-Asn-Ala-Phe-Cys-Tyr-Cys-Arg-Lys-Leu [SEQ ID NO:4]”, for which the IC50 in assay [1] is 100 nM; in assay [3], 850 nM; in assay [4], 90 nM.

Turning to “HESCLGQQVPC[Abu]DP[Abu]ATCYCRFFNAFCYCRKL (cysteine pairing not given here) [SEQ ID NO:2]”, the IC50 in assay [1] is 200 nM; in assay [3] it was above 1000 nM; in assay [4], 850 nM.

Consider “C[Abu]DPCAT[Abu]YCRFFNAFCYCRKLGTAMNPCSRT (cysteine pairing not given here) [SEQ ID NO:8]”, for which the IC50 in assay [4] amounted to 400 nM.

As for “RNSCKPPAPAC[Abu]DP[Abu]ASCQCRFFRSACSCRVL (cysteine pairing not given here) [SEQ ID NO:13]”, the IC50 is 1000 nM in assay [1], 60 nM in assay [2], above 1000 nM in assay [3] and above 1000 nM in assay [4].

Turning to “Cys-Abu-Asp-Pro-Abu-Ala-Thr-Abu-Tyr-Cys-Arg-Phe-Phe-Asn-Ala-Phe-Cys-Tyr-Cys-Arg-Lys-Leu-Gly-Thr-Ala-Met-Asn-Pro-Abu-Ser-Arg-Thr [SEQ ID NO:10]”, the IC50 in assay [1] is 102 nM; in assay [2] it was 15 nM; in assay [3], 500 nM; in assay [4] it was 147 nM.

B1: peptide of SEQ ID NO:14 (peptide)
peptide: RNSCKPPAPA[Abu][Abu]DP[Abu]ASCQCRFFRSACS[Abu]RVL
modifications: disulfide (positions not given here); also: oxidised to disulfides, pairs not given here
Take B1: the half-inhibitory concentration (IC50) in assay [5] is above 1000 nM; in assay [6], above 1000 nM; in assay [7], above 1000 nM; in assay [8] it was 900 nM.

B2: peptide of SEQ ID NO:11 (peptide)
peptide: C[Abu]DPCAT[Abu]Y[Abu]RFFNAF[Abu]YCRKLGTAMNPCSRT
modifications: disulfide (positions not given here); also: oxidised to disulfides, pairs not given here
B2: the IC50 was above 1000 nM in assay [5], above 1000 nM in assay [6], above 1000 nM in assay [7] and 800 nM in assay [8].

Consider CRFFGSAC (disulfide 1-8 (inferred)) [peptide of SEQ ID NO:7], for which the IC50 in assay [5], in assay [6] and in assay [7] was above 1000 nM in each case.

Turning to AC[Abu]DP[Abu]AS[Abu]QCRFFRSACSCRVL (disulfide (positions not given here)) [peptide of SEQ ID NO:16], the IC50 is above 1000 nM in assay [5], above 1000 nM in assay [6], above 1000 nM in assay [7] and 280 nM in assay [8].

Turning to HESCLGQQVPC[Abu]DP[Abu]ATCY[Abu]RFFNAF[Abu]YCRKL (disulfide (positions not given here)) [peptide of SEQ ID NO:5], the IC50 was above 1000 nM in assay [5], above 1000 nM in assay [6], above 1000 nM in assay [7] and 377 nM in assay [8].

Take CRFFNAFC (disulfide 1-8 (inferred)) [peptide of SEQ ID NO:6]: the half-inhibitory concentration (IC50) in assay [5], in assay [6] and in assay [7] was above 1000 nM throughout.

As to HESCLGQQVP[Abu][Abu]DP[Abu]ATCYCRFFNAFCY[Abu]RKL (disulfide (positions not given here)) [peptide of SEQ ID NO:3], the IC50 in assay [5] was above 1000 nM; in assay [6], above 1000 nM; in assay [7], 900 nM; in assay [8], 160 nM.

B3: peptide of SEQ ID NO:9 (peptide)
peptide: [Abu][Abu]DPCAT[Abu]YCRFFNAFCY[Abu]RKLGTAMNPCSRT
modifications: disulfide (positions not given here); not fully specified (bridges); also: disulfide pairing not given here
For B3, the IC50 in assay [5] is 700 nM; in assay [6], above 1000 nM; in assay [7] it was 600 nM; in assay [8], 73 nM.

B4: peptide of SEQ ID NO:13 (peptide)
peptide: RNSCKPPAPAC[Abu]DP[Abu]ASCQCRFFRSACSCRVL
modifications: disulfide (positions not given here); not fully specified (bridges); printed as Arg-Asn-Ser-Cys-Lys-Pro-Pro-Ala-Pro-Ala-Cys-Abu-Asp-Pro-Abu-Ala-Ser-Cys-Gln-Cys-Arg-Phe-Phe-Arg-Ser-Ala-Cys-Ser-Cys-Arg-Val-Leu; also: three disulfides, pairing not given here
For the molecule B4, the concentration for half-maximal inhibition (IC50) is above 1000 nM in assay [5], above 1000 nM in assay [6], 1000 nM in assay [7] and 60 nM in assay [8].

B5: Mkd5-AGRP (ligand)
chain: APMEGIRRPDQALLPELPGLGLRAPLKKTTAEQAEEDLLQEAQALAEVLDLQDREPRSSRRCVRLHESCLGQQVPCCDPCATCYCRFFNAFCYCRKLGTAMNPCSRT
As for B5, the IC50 in assay [5] was 0.7 nM; in assay [6], 20 nM and 10 nM.

Regarding HESCLGQQVPC[Abu]DP[Abu]ATCYCRFFNAFCYCRKL (disulfide (positions not given here)) [peptide of SEQ ID NO:2], the IC50 in assay [5] is 850 nM; in assay [6] it was above 1000 nM; in assay [7] it was 200 nM; in assay [8] it was 50 nM.

Regarding HES[Abu]LGQQVPC[Abu]DP[Abu]AT[Abu]YCRFFNAFCYCRKL (disulfide (positions not given here)) [peptide of SEQ ID NO:4], the IC50 in assay [5] was 90 nM; in assay [6], 850 nM; in assay [7] it was 100 nM.

B6: peptide of SEQ ID NO:18 (peptide)
peptide: C[Abu]DPCAS[Abu]Q[Abu]RFFRSA[Abu]SCRVLSLNC
modifications: disulfide (positions not given here); also: oxidised to disulfides, pairs not given here
On to B6, for which the IC50 in assay [5], in assay [6], in assay [7] and in assay [8] was above 1000 nM throughout.

As to RNS[Abu]KPPAPAC[Abu]DP[Abu]AS[Abu]QCRFFRSACSCRVL (disulfide (positions not given here)) [peptide of SEQ ID NO:15], the IC50 was above 1000 nM in assay [5], above 1000 nM in assay [6], 800 nM in assay [7] and 45 nM in assay [8].

B7: peptide of SEQ ID NO:17 (peptide)
peptide: [Abu][Abu]DPCAS[Abu]QCRFFRSACS[Abu]RVLSLNC
modifications: disulfide (positions not given here); also: oxidised to disulfides, pairs not given here
As for B7, the IC50 in assay [5], in assay [6], in assay [7] and in assay [8] was above 1000 nM in each case.

The molecule MRCVRLHESCLGQQVPCCDPCATCYCRFFNAFCYCRKLGTAMNPCSRT [Md65-AGRP] registered an IC50 in assay [6] of 2 nM.

Turning to Ac-[Nle]H[dF]RWK [NDP-alpha-MSH], the IC50 was 0.9 nM and 0.7 nM in assay [6]; 8 nM in assay [7].

The values are drawn from patent publication US6303749A, “Agouti and agouti-related peptide analogs” (Amgen Inc., priority 1999, dated 2001).
